T1: human CLEC12A on cells (HL60, PL21, Ba/F3-hCLEC12A) (human, UniProt Q5QGZ9 1-265)
T1 construct: Endogenous on the AML lines HL60 and PL21; brought into mouse Ba/F3 cells by retroviral transduction; The cell line stands under assay; also called CLL-1
T1 sequence: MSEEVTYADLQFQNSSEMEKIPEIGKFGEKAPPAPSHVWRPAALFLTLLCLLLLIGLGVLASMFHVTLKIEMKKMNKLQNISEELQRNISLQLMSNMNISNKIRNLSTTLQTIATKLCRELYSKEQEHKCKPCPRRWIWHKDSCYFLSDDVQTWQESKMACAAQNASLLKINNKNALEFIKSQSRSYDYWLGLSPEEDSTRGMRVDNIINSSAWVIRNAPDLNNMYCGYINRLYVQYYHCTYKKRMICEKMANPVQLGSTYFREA

T2: recombinant human CLEC12A-His (human, UniProt Q5QGZ9 65-265)
T2 construct: also called hCLEC12A-His; hCLEC12A
T2 sequence: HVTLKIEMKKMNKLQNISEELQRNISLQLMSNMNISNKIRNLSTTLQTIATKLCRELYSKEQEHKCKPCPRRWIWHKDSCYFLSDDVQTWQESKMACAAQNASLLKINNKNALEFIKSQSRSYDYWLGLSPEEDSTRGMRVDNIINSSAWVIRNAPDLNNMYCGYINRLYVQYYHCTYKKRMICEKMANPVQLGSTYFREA

T3: de-glycosylated hCLEC12A (human, UniProt Q5QGZ9 65-265, N-linked glycans removed (PNGase F))
T3 construct: also called PNGase-treated hCLEC12A; De-glycosylated CLEC12A
T3 sequence: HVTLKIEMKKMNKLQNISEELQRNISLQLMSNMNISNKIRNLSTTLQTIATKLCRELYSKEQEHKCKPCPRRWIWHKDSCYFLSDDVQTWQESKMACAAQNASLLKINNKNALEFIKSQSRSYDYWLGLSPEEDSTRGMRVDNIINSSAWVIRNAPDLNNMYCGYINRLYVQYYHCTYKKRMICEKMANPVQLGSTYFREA

T4: de-sialylated hCLEC12A (human, UniProt Q5QGZ9 65-265, terminal sialic acids removed (neuraminidase))
T4 construct: also called De-sialylated CLEC12A
T4 sequence: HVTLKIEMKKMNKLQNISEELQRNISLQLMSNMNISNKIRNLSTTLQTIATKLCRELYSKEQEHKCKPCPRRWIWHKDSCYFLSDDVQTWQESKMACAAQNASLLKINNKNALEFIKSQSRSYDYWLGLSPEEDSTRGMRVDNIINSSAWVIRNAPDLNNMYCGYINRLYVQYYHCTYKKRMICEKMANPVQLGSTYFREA

B1: AB0305 mAb (Humanized 1739 anti-CLEC12A mAb) (antibody, IgG1, V domains shown)
VH: QLQLQESGPGLVKPSETLSLTCTVSGFSLTNYGLHWIRQPPGKGLEWIGVIWVGGATDYNPSLKSRVTISVDTSKNQFSLKLSSVQAADTAVYYCAKGDYGDTLDYWGQGTLVTVSS
VL: DIQMTQSPSSLSASVGDRVTITCHASQNINFWLSWYQQKPGKAPKLLIYEASNLHTGVPSRFSGSGSGTDFTLTISSLQPEDFATYYCQQSHSYPLTFGSGTKLEIK
notes: Parental hIgG1 mAb; also called parental mAb of AB0089
B2: AB0037 mAb (Humanized 1602 anti-CLEC12A mAb) (antibody, V domains shown)
VH: QLQLQESGPGLVKPSETLSLTCTVSGFSLTNYGLHWIRQPPGKGLEWIGVIWSGGKTDYNPSLKSRVTISKDTSKNQFSLKLSSVQAADTAVYYCAKYDYDDSLDYWGQGTLVTVSS
VL: DIQMTQSPSSLSASVGDRVTITCHASQNINFWLSWYQQKPGKAPKLLIYEASNLHTGVPSRFSGSGSGTRFTLTISSLQPEDIATYYCQQSHSYPLTFGGGTKLEIK
notes: Parental mAb of AB0237; also called humanized mAb 16B8.C8; parental mAb of AB0237
B3: AB0306 mAb (Humanized 1797 anti-CLEC12A mAb) (antibody, IgG1, V domains shown)
VH: EVQLVESGGGVVQPGGSLRLSCAASGFTFNAFGMHWVRQAPGKGLEWVAFISSGSTSIYYANTVKGRFTISRDNSKNTLYLQMNSLRAEDTAVYYCARDGYPTGGAMDYWGQGTSVTVSS
VL: DIQMTQSPSSLSASVGDRVTITCKASQDIYNYLSWFQQKPGKAPKPLIYRANILVSGVPSRFSGSGSGQDYTFTISSLQPEDIATYYCLQFDAFPFTFGSGTKLEIK
notes: Parental hIgG1 mAb of AB0192; also called parental mAb of AB0192
B4: m9F11-hIgG1 (antibody, V domains shown)
VH: EVQLQESGGGLVQPGGSRKLSCAASGFTFNSFGMHWVRQAPEKGLEWVAFISSGSTSIYYANTVKGRFTISRDNPKNTLFLQMTSLRSEDTAMYYCARDGYPTGGAMDYWGQGTSVTVSS
VL: DIKMTQSPSSMYASLGERVTITCKASQDIYNYLSWFQLKPGKSPRPLIYRANILVSGVPSKFSGSGSGQDYSLTINSLEYEDLGIYYCLQFDAFPFTFGSGTKLEIK
notes: also called chimeric parent mouse 9F11.B7 mAb
B5: Murine F3'-9F11 (other)
VH: EVQLQESGGGLVQPGGSRKLSCAASGFTFNSFGMHWVRQAPEKGLEWVAFISSGSTSIYYANTVKGRFTISRDNPKNTLFLQMTSLRSEDTAMYYCARDGYPTGGAMDYWGQGTSVTVSS
VL: DIKMTQSPSSMYASLGERVTITCKASQDIYNYLSWFQLKPGKSPRPLIYRANILVSGVPSKFSGSGSGQDYSLTINSLEYEDLGIYYCLQFDAFPFTFGSGTKLEIK
notes: the text calls it clone 9F11.B7; F3' construct (scFv order, Fc, NKG2D Fab) not spelled out
B6: F3'-1602 TriNKET (other)
chain: QLQLQESGPGLVKPSETLSLTCTVSGFSLTNYGLHWIRQPPGKCLEWIGVIWSGGKTDYNPSLKSRVTISKDTSKNQFSLKLSSVQAADTAVYYCAKYDYDDSLDYWGQGTLVTVSSGGGGSGGGGSGGGGSGGGGSDIQMTQSPSSLSASVGDRVTITCHASQNINFWLSWYQQKPGKAPKLLIYEASNLHTGVPSRFSGSGSGTRFTLTISSLQPEDIATYYCQQSHSYPLTFGCGTKLEIKGSDKTHTCPPCPAPELLGGPSVFLFPPKPKDTLMISRTPEVTCVVVDVSHEDPEVKFNWYVDGVEVHNAKTKPREEQYNSTYRVVSVLTVLHQDWLNGKEYKCKVSNKALPAPIEKTISKAKGQPREPRVYTLPPCRDELTKNQVSLTCLVKGFYPSDIAVEWESNGQPENNYKTTPPVLVSDGSFTLYSKLTVDKSRWQQGNVFSCSVMHEALHNHYTQKSLSLSPG
heavy: EVQLVESGGGLVKPGGSLRLSCAASGFTFSSYSMNWVRQAPGKGLEWVSSISSSSSYIYYADSVKGRFTISRDNAKNSLYLQMNSLRAEDTAVYYCARGAPIGAAAGWFDPWGQGTLVTVSSASTKGPSVFPLAPSSKSTSGGTAALGCLVKDYFPEPVTVSWNSGALTSGVHTFPAVLQSSGLYSLSSVVTVPSSSLGTQTYICNVNHKPSNTKVDKKVEPKSCDKTHTCPPCPAPELLGGPSVFLFPPKPKDTLMISRTPEVTCVVVDVSHEDPEVKFNWYVDGVEVHNAKTKPREEQYNSTYRVVSVLTVLHQDWLNGKEYKCKVSNKALPAPIEKTISKAKGQPREPQVCTLPPSRDELTENQVSLTCLVKGFYPSDIAVEWESNGQPENNYKTTPPVLDSDGSFFLYSWLTVDKSRWQQGNVFSCSVMHEALHNHYTQKSLSLSPG
light: DIQMTQSPSSVSASVGDRVTITCRASQGISSWLAWYQQKPGKAPKLLIYAASSLQSGVPSRFSGSGSGTDFTLTISSLQPEDFATYYCQQGVSFPRTFGGGTKVEIKRTVAAPSVFIFPPSDEQLKSGTASVVCLLNNFYPREAKVQWKVDNALQSGNSQESVTEQDSKDSTYSLSSTLTLSKADYEKHKVYACEVTHQGLSSPVTKSFNRGEC
notes: F3' format TriNKET; also called AB0237
B7: AB0089 TriNKET (other)
chain: QLQLQESGPGLVKPSETLSLTCTVSGFSLTNYGLHWIRQPPGKCLEWIGVIWVGGATDYNPSLKSRVTISVDTSKNQFSLKLSSVQAADTAVYYCAKGDYGDTLDYWGQGTLVTVSSGGGGSGGGGSGGGGSGGGGSDIQMTQSPSSLSASVGDRVTITCHASQNINFWLSWYQQKPGKAPKLLIYEASNLHTGVPSRFSGSGSGTDFTLTISSLQPEDFATYYCQQSHSYPLTFGCGTKLEIKGSDKTHTCPPCPAPELLGGPSVFLFPPKPKDTLMISRTPEVTCVVVDVSHEDPEVKFNWYVDGVEVHNAKTKPREEQYNSTYRVVSVLTVLHQDWLNGKEYKCKVSNKALPAPIEKTISKAKGQPREPRVYTLPPCRDELTKNQVSLTCLVKGFYPSDIAVEWESNGQPENNYKTTPPVLVSDGSFTLYSKLTVDKSRWQQGNVFSCSVMHEALHNHYTQKSLSLSPG
heavy: EVQLVESGGGLVKPGGSLRLSCAASGFTFSSYSMNWVRQAPGKGLEWVSSISSSSSYIYYADSVKGRFTISRDNAKNSLYLQMNSLRAEDTAVYYCARGAPIGAAAGWFDPWGQGTLVTVSSASTKGPSVFPLAPSSKSTSGGTAALGCLVKDYFPEPVTVSWNSGALTSGVHTFPAVLQSSGLYSLSSVVTVPSSSLGTQTYICNVNHKPSNTKVDKKVEPKSCDKTHTCPPCPAPELLGGPSVFLFPPKPKDTLMISRTPEVTCVVVDVSHEDPEVKFNWYVDGVEVHNAKTKPREEQYNSTYRVVSVLTVLHQDWLNGKEYKCKVSNKALPAPIEKTISKAKGQPREPQVCTLPPSRDELTENQVSLTCLVKGFYPSDIAVEWESNGQPENNYKTTPPVLDSDGSFFLYSWLTVDKSRWQQGNVFSCSVMHEALHNHYTQKSLSLSPG
light: DIQMTQSPSSVSASVGDRVTITCRASQGISSWLAWYQQKPGKAPKLLIYAASSLQSGVPSRFSGSGSGTDFTLTISSLQPEDFATYYCQQGVSFPRTFGGGTKVEIKRTVAAPSVFIFPPSDEQLKSGTASVVCLLNNFYPREAKVQWKVDNALQSGNSQESVTEQDSKDSTYSLSSTLTLSKADYEKHKVYACEVTHQGLSSPVTKSFNRGEC
notes: F3' format TriNKET

Legend:
[1] = biological target: T1, human CLEC12A on cells (HL60, PL21, …); assay: flow cytometry, HL60 cells
Protocol: (§1) 100,000 cells were seeded per well into a 96-well plate for FACS staining. Cells were washed with PBS. Cells were incubated in a 1:2000 dilution of live/dead dye in PBS for 15 minutes, then washed with FACS buffer. TriNKETs or mAbs were diluted into FACS buffer, and 50 μl containing diluted TriNKET or mAb was added to cells. Cells were incubated on ice for 20 minutes. After the incubation, cells were washed with FACS buffer. Anti-human IgG-Fc secondary antibody was diluted into FACS buffer, and 50 μl was added per well for detection of the bound TriNKETs or mAbs. Cells were incubated for 20 minutes on ice, then washed with FACS buffer. 50 μl of fixation buffer was added to each well, and cells were incubated for 10 minutes at room temperature. Cells were washed with FACS buffer and resuspended in FACS buffer for analysis with BD FACS Celesta SN #H66034400085, or BD FACS Celesta SN #H66034400160. Cells of interest were identified using FSC vs. SSC plot, and an appropriately shaped gate was drawn around the cells. Within the gated cells, doublet cells were removed by viewing FSC-H vs FSC-A plot. Within the single cell population, live cells were gated. Within the live gate, the mean fluorescence intensity (MFI) of each sample and the secondary-only control was calculated. Fold-over-background (FOB) was calculated as the ratio of test article MFI over secondary-only background MFI. Data were fit to a four-parameter non-linear regression curve using GraphPad Prism 7.0.

[2] = biological target: T1, human CLEC12A on cells (HL60, PL21, …); assay: flow cytometry, PL21 cells
Protocol: as §1

[3] = biological target: T1, human CLEC12A on cells (HL60, PL21, …); assay: flow cytometry, 40 nM, MFI after 2 h 37 C relative to 2 h on ice, PL21 cells
Protocol: (§2) Test articles were used at saturation concentrations and detected using a human IgG Fc-specific secondary antibody. Staining intensity after two hours at 37° C. was normalized to staining intensity of the same test article on cells incubated for two hours on ice to derive the percentage of CLEC12A retained on cell surfaces. Data bars represent the average of duplicate wells and error bars represent standard deviation.
(§3) 100,000 cells were seeded per well into duplicate 96-well plates for FACS staining. Cells were washed with FACS buffer. Test articles were diluted to 40 nM and were added to each of the duplicate plates. The first plate was incubated on ice for 2 hours, while the second plate was moved to 37° C. for two hours. After the incubation, cells were washed with PBS and cells were incubated in a 1:2000 dilution of live/dead dye in PBS for 15 minutes, then washed with FACS buffer. Anti-human IgG-Fc secondary antibody was diluted into FACS buffer, and 50 μl was added per well for detection of the bound TriNKETs or mAbs. Cells were incubated for 20 minutes on ice, then washed with FACS buffer. 50 μl of fixation buffer was added to each well, and cells were incubated for 10 minutes at room temperature. Cells were washed with FACS buffer and resuspended in FACS buffer for analysis with BD FACS Celesta SN #H66034400085, or BD FACS Celesta SN #H66034400160. Cells of interest were identified using FSC vs. SSC plot, and an appropriately shaped gate was drawn around the cells. Within the gated cells, doublet cells were removed by viewing FSC-H vs FSC-A plot. Within the single cell population, live cells were gated. […] Surface retention was then calculated as follows:

[4] = biological target: T1, human CLEC12A on cells (HL60, PL21, …); assay: flow cytometry, 40 nM, MFI after 2 h 37 C relative to 2 h on ice, HL60 cells
Protocol: as §2, §3

[5] = biological target: T1, human CLEC12A on cells (HL60, PL21, …); assay: flow cytometry, Ba/F3-hCLEC12A cells
Protocol: as §1

[6] = biological target: T2, recombinant human CLEC12A-His; assay: SPR screening
[7] = biological target: T2, recombinant human CLEC12A-His; assay: SPR
de-glycosylated hCLEC12A = biological target: T3, de-glycosylated hCLEC12A; assay: SPR
de-sialylated hCLEC12A = biological target: T4, de-sialylated hCLEC12A; assay: SPR

| Binder | EC50 [1] | FOB (fold over background) [1] | EC50 [2] | FOB (fold over background) [2] | percent surface retention [3] | percent surface retention [4] | EC50 [5] | FOB (fold over background) [5] | Kd [6] | koff [6] | kon [6] | Kd [7] | koff [7] | kon [7] | Kd (de-glycosylated hCLEC12A) | koff (de-glycosylated hCLEC12A) | kon (de-glycosylated hCLEC12A) | Kd (de-sialylated hCLEC12A) | koff (de-sialylated hCLEC12A) | kon (de-sialylated hCLEC12A) |
| --- | --- | --- | --- | --- | --- | --- | --- | --- | --- | --- | --- | --- | --- | --- | --- | --- | --- | --- | --- | --- |
| B1 | 120 pM | 53 fold | 120 pM | 15 fold | 92% | 90% | 670 pM | 279 fold |  |  |  |  |  |  |  |  |  |  |  |  |
| B2 | 520 pM | 51 fold | 520 pM | 13 fold | 79% | 74% | 1400 pM | 301 fold |  |  |  |  |  |  |  |  |  |  |  |  |
| B3 | 260 pM | 47 fold | 180 pM | 12 fold | 106% | 114% | 680 pM | 303 fold |  |  |  |  |  |  |  |  |  |  |  |  |
| B4 |  |  |  |  |  |  |  |  | 1070 pM | 0.00102 s⁻¹ | 950000 M⁻¹ s⁻¹ |  |  |  |  |  |  |  |  |  |
| B5 |  |  |  |  |  |  |  |  |  |  |  | 960 pM | 0.00111 s⁻¹ | 1.15e+06 M⁻¹ s⁻¹ | 340 pM | 0.000374 s⁻¹ | 1.11e+06 M⁻¹ s⁻¹ | 620 pM | 0.00098 s⁻¹ | 1.58e+06 M⁻¹ s⁻¹ |
| B6 | 1010 pM | 66 fold | 520 pM | 15 fold | 91% | 106% | 1540 pM | 341 fold |  |  |  |  |  |  |  |  |  |  |  |  |
| B7 | 1080 pM | 70 fold | 340 pM | 16 fold | 124% | 147% | 2280 pM | 434 fold |  |  |  |  |  |  |  |  |  |  |  |  |

Source: US20220119534A1 (DRAGONFLY THERAPEUTICS, published 2022)
